Measured values: US7547662 (KIMBERLY CLARK WORLDWIDE, dated 2009)

Experiments:
[1] = molecular target: T1, Bovine trypsin (Sigma Chemical Co.) (bovine, UniProt P00760 24-246); test: ITC, binding agent injected into bovine trypsin, 293 K
T1 construct: Unlabelled in ITC; Oregon Green labelled in the library screening assay; also called bovine pancreatic trypsin
Description: (§1) Isothermal titration calorimetry (ITC) was performed with a VP-ITC instrument from MicroCal, Inc. Titrations were carried out by injecting 5 µL of a binding agent (at concentration ranges from 0.5 mM to 1.0 mM) into the 1.4 mL stirred reaction cell. Bovine trypsin (Sigma Chemical Co.) ranged in concentration from 10 to 30 μM in the cell. Both the inhibitor and the enzyme were in 20 mM sodium cacodylate (pH 6.9), 40 mM NaCl. Titrations were conducted at 20° C. Typical experimental conditions for the titrations were a 10 second injection period followed by a 240 second delay between injections for a total of 40 injections. Blank titrations of binding agent into buffer were performed in order to correct for heats of dilution and mixing.
(§2) The ability of three binding agents (SEQ ID NO:4, SEQ ID NO:33 and 35) was tested to ascertain whether they could effectively bind bovine trypsin. Binding was measured by isothermal titration calorimetry (ITC).
Figure 9: FIG. 9 is a graph illustrating the binding between the computer-generated loop i variant and bovine pancreatic trypsin as analyzed by ITC analysis. Binding reagents and trypsin were dialyzed into 20 mM sodium cacodylate (pH 6.9), 40 mM NaCl. The binding reagent was at a concentration of 1 mM and trypsin was used in the calorimeter cell at a concentration of 20 μM. The temperature was maintained at 20° C. 40 injections of 5 μL each were employed with a 240 second re-equilibrium time between injections.

[2] = molecular target: T1, Bovine trypsin (Sigma Chemical Co.); test: ITC, binding agent injected into bovine trypsin in the cell, 20 C
Description: as §1, §2

T1 sequence (P00760 24-246): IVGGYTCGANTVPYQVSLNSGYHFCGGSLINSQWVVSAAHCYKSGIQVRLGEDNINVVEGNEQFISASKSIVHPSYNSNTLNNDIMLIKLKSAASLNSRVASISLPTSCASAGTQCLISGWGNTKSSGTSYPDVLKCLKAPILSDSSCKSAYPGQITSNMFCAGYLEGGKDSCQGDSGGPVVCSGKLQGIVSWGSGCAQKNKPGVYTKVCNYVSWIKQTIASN

Ka [1] [M⁻¹] | Stoichiometry [1] | ΔS [1] [cal mol^-1 K^-1] | binding result [2] | Binder
622000 | 1.02 | -96.6 | – | Loop i variant from computer search (parental binding agent with loop i ITAVCHK, SEQ ID NO:35) (designed binder, The protein was then made, expressed and purified, and tested by ITC; also called Loop i Variant Computer; computer-generated loop i variant; not shown: C-terminal hexa-histidine tag added by the vector construct) MDVQLQASGGGSVQAGGSLRLSCAASITAVCHKCAGWFRQAPGKEREGVAAINAGAAGTSYADSVKGRFTISQLAGAANVYLLMNSLEPEDTAIYYCAAGHAGAAGAATCGHGLSTAGAAGAPWGQGTQVTVSS
1.65e+06 | 0.99 | -102 | – | Loop i variant from library screening (parental binding agent with loop i RYLRYPS, SEQ ID NO:33) (designed binder, The clone came from a library in which loops i to v were randomised; also called Loop i variant Screening; Biological Screen; not shown: C-terminal hexa-histidine tag added by the vector construct) MDVQLQASGGGSVQAGGSLRLSCAASRYLRYPSCAGWFRQAPGKEREGVAAINAGAAGTSYADSVKGRFTISQLAGAANVYLLMNSLEPEDTAIYYCAAGHAGAAGAATCGHGLSTAGAAGAPWGQGTQVTVSS
– | – | – | no binding | Parental binding agent (generic binding agent, SEQ ID NO:4, Ala/Gly loops) (designed binder, Camelid VHH-derived beta barrel scaffold, all five loops Ala/Gly; Expressed in E. coli as a monomeric C-terminal His-Tag fusion; not shown: C-terminal hexa-histidine tag added by the vector construct) MDVQLQASGGGSVQAGGSLRLSCAASAGAAGAACAGWFRQAPGKEREGVAAINAGAAGTSYADSVKGRFTISQLAGAANVYLLMNSLEPEDTAIYYCAAGHAGAAGAATCGHGLSTAGAAGAPWGQGTQVTVSS
